Results: the supplement of paper PMC10724198
± gives the standard deviation of the averaged measurements.

Columns and labels:
Saccharomyces cerevisiae [1] = assay: protein stability index of tFT-peptide fusion (C-terminal peptide) (PSI (0-1 scale)); higher = more stable (slower turnover)
Description: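 MPS profiling in S. cerevisiae of the tFT-X12 degron library: putative degron peptides plus stable controls, 12 aa, fused to the C-terminus of a sfGFP-mCherry timer. Cells are FACS-sorted into 8 mCherry/sfGFP bins and deep-sequenced. PSI runs from 0 (unstable) to 1 (stable). Backgrounds are wild type, das1Δ and doa10Δ at 30 °C, and wild type, das1Δ, cdc34-1 and cdc53-1 at 37 °C; 2-3 technical replicates each.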

Saccharomyces cerevisiae [2] = assay: as above; conditions: genetic background: wild type; temperature: 30 C
[3] = genetic background: cdc34-1, temperature: 37 C
[4] = genetic background: cdc53-1, temperature: 37 C
[5] = genetic background: das1 deletion, temperature: 30 C
[6] = genetic background: das1 deletion, temperature: 37 C
[7] = genetic background: doa10 deletion, temperature: 30 C
[8] = genetic background: wild type, temperature: 30 C
[9] = genetic background: wild type, temperature: 37 C
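Also: PSI is a weighted mean of sequencing reads over stability bins, variants kept only with over 10 reads, mCherry proximal and sfGFP distal, peptide attached via GGGS linker.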

Row | Sequence | protein stability index (Saccharomyces cerevisiae [1]; [3]) | protein stability index (Saccharomyces cerevisiae [1]; [4]) | protein stability index (Saccharomyces cerevisiae [1]; [5]) | protein stability index (Saccharomyces cerevisiae [1]; [6]) | protein stability index (Saccharomyces cerevisiae [1]; [7]) | protein stability index (Saccharomyces cerevisiae [1]; [8]) | protein stability index (Saccharomyces cerevisiae [1]; [9]) | protein stability index (Saccharomyces cerevisiae [2])
1 | PETSRFALNEWG | 0.709 ± 0.04 | 0.748 ± 0.018 | 0.665 ± 0.0095 | 0.755 ± 0.0086 | 0.674 ± 0.043 | 0.68 ± 0.02 | 0.717 ± 0.011 | 0.727 ± 0.059
2 | VLSCIPRLAIAA | 0.335 ± 0.01 | 0.372 ± 0.019 | 0.284 ± 0.023 | 0.404 ± 0.008 | 0.235 ± 0.0017 | 0.251 ± 0.0058 | 0.318 ± 0.0072 | 0.327 ± 0.017
3 | FCVGVLFSCLVF | 0.338 ± 0.041 | 0.412 ± 0.032 | 0.313 ± 0.021 | 0.4295 ± 0.0031 | 0.286 ± 0.0042 | 0.301 ± 0.019 | 0.43 ± 0.023 | 0.394 ± 0.019
4 | YVLLSRVSVFSA | 0.446 ± 0.0078 | 0.464 ± 0.031 | 0.378 ± 0.019 | 0.533 ± 0.0079 | 0.297 ± 0.011 | 0.329 ± 0.037 | 0.501 ± 0.028 | 0.421 ± 0.035
5 | VCQVCVCFLFWR | 0.0977 ± 0.0034 | 0.0539 ± 0.0021 | 0.145 ± 0.032 | 0.181 ± 0.0077 | 0.27 ± 0.018 | 0.139 ± 0.016 | 0.169 ± 0.017 | 0.228 ± 0.043
6 | LSFLFFRLCSFF | 0.487 ± 0.066 | 0.551 ± 0.0081 | 0.568 ± 0.034 | 0.668 ± 0.021 | 0.157 ± 0.0029 | 0.158 ± 0.017 | 0.184 ± 0.04 | 0.203 ± 0.061
7 | LMLIPRLLVGAH | 0.181 ± 0.034 | 0.172 ± 0.0025 | 0.184 ± 0.029 | 0.2958 ± 0.0022 | 0.152 ± 0.008 | 0.181 ± 0.018 | 0.2523 ± 0.0011 | 0.291 ± 0.014
8 | CLAWWLGRVWVC | 0.184 ± 0.018 | 0.225 ± 0.0095 | 0.219 ± 0.027 | 0.364 ± 0.0011 | 0.115 ± 0.011 | 0.0919 ± 0.017 | 0.105 ± 0.0053 | 0.141 ± 0.006
9 | FPTLHPAIPYLC | 0.643 ± 0.013 | 0.672 ± 0.057 | 0.616 ± 0.017 | 0.7116 ± 0.0013 | 0.237 ± 0.01 | 0.282 ± 0.022 | 0.468 ± 0.02 | 0.458 ± 0.042
10 | TYYPLNRSRFIG | 0.5858 ± 0.0048 | 0.7261 ± 0.0025 | 0.635 ± 0.035 | 0.7616 ± 0.0049 | 0.108 ± 0.0073 | 0.139 ± 0.0058 | 0.241 ± 0.023 | 0.277 ± 0.15
11 | FCVGVVIQLSGV | 0.435 ± 0.053 | 0.491 ± 0.034 | 0.311 ± 0.035 | 0.499 ± 0.0053 | 0.296 ± 0.0032 | 0.326 ± 0.021 | 0.473 ± 0.014 | 0.415 ± 0.0067
12 | LGGVGTLVHCFV | 0.615 ± 0.026 | 0.635 ± 0.016 | 0.36 ± 0.022 | 0.607 ± 0.0081 | 0.351 ± 0.013 | 0.375 ± 0.014 | 0.597 ± 0.02 | 0.452 ± 0.053
13 | FYGVRFLVCVSA | 0.0202 ± 0.0026 | 0.0332 ± 0.0048 | 0.111 ± 0.037 | 0.117 ± 0.015 | 0.0738 ± 0.018 | 0.105 ± 0.03 | 0.096 ± 0.0045 | 0.1575 ± 0.0005
14 | CCLGVIASFIVW | 0.247 ± 0.01 | 0.435 ± 0.15 | 0.284 ± 0.036 | 0.455 ± 0.024 | 0.236 ± 0.0065 | 0.254 ± 0.036 | 0.408 ± 0.0049 | 0.3579 ± 0.0021
15 | IISICLYFLVRC | 0.223 ± 0.003 | 0.326 ± 0.073 | 0.229 ± 0.027 | 0.391 ± 0.0067 | 0.212 ± 0.0074 | 0.212 ± 0.015 | 0.327 ± 0.0058 | 0.299 ± 0.045
16 | GFFFFHGLCFFV | 0.448 ± 0.017 | 0.513 ± 0.028 | 0.382 ± 0.029 | 0.5453 ± 0.0035 | 0.358 ± 0.028 | 0.355 ± 0.023 | 0.526 ± 0.02 | 0.43 ± 0.047
17 | EVGTMALISCSV | 0.3854 ± 0.001 | 0.356 ± 0.084 | 0.319 ± 0.05 | 0.458 ± 0.022 | 0.252 ± 0.019 | 0.288 ± 0.034 | 0.427 ± 0.039 | 0.428 ± 0.034
18 | KHKIIGKYQRQI | 0.704 ± 0.13 | 0.751 ± 0.02 | 0.629 ± 0.033 | 0.7236 ± 0.0012 | 0.319 ± 0.017 | 0.338 ± 0.017 | 0.576 ± 0.015 | 0.46 ± 0.021
19 | PSLPPLPPFAAL | 0.73 ± 0.0098 | 0.7412 ± 0.0013 | 0.676 ± 0.051 | 0.75 ± 0.021 | 0.663 ± 0.0099 | 0.661 ± 0.02 | 0.72 ± 0.024 | 0.749 ± 0.052
20 | GLRLRCPLLLSL | 0.354 ± 0.018 | 0.341 ± 0.018 | 0.315 ± 0.049 | 0.47 ± 0.011 | 0.507 ± 0.023 | 0.324 ± 0.013 | 0.425 ± 0.0045 | 0.383 ± 0.028
